We go through 4 molecules from patent US20140087995A1 (published 2014).

Numbered stars: 1 amine (or outer) side, 2 acyl side, 3 side chain; on linkers, the order of the positions; unused ones are H or OH. Bridge positions count the residues as written; N and C are the ends. Side chains are listed from the residue outwards. Ends that are not written are not given here. * marks the point of attachment. C20 diacid = O=C(O)CCCCCCCCCCCCCCCCCCC(=O)*; γGlu = O=C(O)[C@H](CCC(=O)[*:2])N[*:1]

Assay [1] concerns the target T1, rat calcitonin receptor (rat, UniProt P32214 25-516).
T1 construct: whole, on cells; also called rCTR; rat calcitonin (a) receptor
T1 sequence (looked up): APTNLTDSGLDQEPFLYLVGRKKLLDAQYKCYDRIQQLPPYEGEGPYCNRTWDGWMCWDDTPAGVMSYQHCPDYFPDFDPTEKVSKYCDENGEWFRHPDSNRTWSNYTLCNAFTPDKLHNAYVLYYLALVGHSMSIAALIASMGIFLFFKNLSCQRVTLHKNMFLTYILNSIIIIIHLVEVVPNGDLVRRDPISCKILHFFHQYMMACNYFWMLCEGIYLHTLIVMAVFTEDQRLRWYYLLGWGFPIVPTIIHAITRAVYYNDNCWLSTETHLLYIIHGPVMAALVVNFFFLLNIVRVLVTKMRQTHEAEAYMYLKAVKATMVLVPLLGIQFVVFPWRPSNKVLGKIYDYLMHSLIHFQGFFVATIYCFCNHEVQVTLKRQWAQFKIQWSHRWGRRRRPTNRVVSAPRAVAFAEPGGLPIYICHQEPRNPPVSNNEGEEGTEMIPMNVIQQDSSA
Kind of assay: ratio of binding IC50s: rat calcitonin receptor over rat amylin receptor (reference).

For assay [2], the target named is T2, human calcitonin receptor (human, UniProt P30988 25-474).
T2 construct: whole, on cells; also called hCTR; hCT
T2 sequence (looked up): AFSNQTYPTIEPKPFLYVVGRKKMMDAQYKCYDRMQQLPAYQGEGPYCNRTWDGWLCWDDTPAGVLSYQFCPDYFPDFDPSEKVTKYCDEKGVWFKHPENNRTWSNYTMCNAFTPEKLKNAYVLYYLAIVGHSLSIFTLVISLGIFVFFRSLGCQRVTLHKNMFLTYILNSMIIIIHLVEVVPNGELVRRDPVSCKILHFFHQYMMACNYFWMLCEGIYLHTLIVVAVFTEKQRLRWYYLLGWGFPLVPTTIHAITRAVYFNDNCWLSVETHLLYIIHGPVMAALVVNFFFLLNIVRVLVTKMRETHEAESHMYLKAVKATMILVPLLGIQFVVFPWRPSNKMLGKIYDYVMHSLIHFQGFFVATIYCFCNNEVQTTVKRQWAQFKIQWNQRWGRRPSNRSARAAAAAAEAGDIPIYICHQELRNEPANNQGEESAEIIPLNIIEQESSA
As to the kind of experiment: ratio of binding IC50s: human calcitonin receptor over human amylin receptor (reference). Put shortly:
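Competition binding by SPA uses membrane preparations (35 ng/μL final) in pH 7.4 Hepes buffer with 1 mM CaCl2 and 5 mM MgCl₂. Incubation lasts 120 min at 25° C, and IC₅₀ comes from one-site fitting.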

For assay [3], the target named is T1, rat calcitonin receptor. Kind of assay: SPA competition with 125I-calcitonin, membranes of BHK cells with rat calcitonin receptor (Assay VIII).
Assay [4] deals with T3, rat amylin receptor (rat calcitonin receptor + rat RAMP 3) (rat, UniProt P32214 25-516; Q9JJ73 23-147).
T3 construct: whole, on cells; also called rAmylin-R; rat amylin 3(a) receptor
T3 sequence (looked up) 1: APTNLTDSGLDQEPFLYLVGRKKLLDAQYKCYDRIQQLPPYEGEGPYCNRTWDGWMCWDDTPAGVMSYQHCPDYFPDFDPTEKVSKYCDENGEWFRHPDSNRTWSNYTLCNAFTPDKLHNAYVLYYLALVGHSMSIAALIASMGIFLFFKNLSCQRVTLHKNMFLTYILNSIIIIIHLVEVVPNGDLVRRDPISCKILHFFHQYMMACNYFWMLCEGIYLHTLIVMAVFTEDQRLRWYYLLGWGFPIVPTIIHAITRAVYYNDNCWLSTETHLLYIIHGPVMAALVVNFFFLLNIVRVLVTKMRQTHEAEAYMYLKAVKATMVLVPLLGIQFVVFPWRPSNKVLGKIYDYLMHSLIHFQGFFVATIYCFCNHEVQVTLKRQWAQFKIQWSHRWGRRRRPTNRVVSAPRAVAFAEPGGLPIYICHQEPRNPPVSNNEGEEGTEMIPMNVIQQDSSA
T3 sequence (looked up) 2: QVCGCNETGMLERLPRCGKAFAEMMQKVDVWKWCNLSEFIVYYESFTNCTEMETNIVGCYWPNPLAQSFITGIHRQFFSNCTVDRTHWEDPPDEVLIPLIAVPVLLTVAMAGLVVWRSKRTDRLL
As to the kind of experiment: SPA competition with 125I-rat amylin, membranes of BHK cells with rat calcitonin receptor + rat RAMP3 (Assay VI).

The term IC50 denotes the concentration that inhibits the measured activity by half.

B1: N^ε1-[(4S)-4-carboxy-4-(19-carboxynonadecanoylamino)butanoyl]-[Glu14,Arg17,Pro21,Pro27,Arg35]-h-amylin (peptide)
peptide: K([γGlu-C20 diacid])CNTATCATQRLAEFLRHSSPNFGAIPSSTNVGSRTY-NH2
modifications: disulfide 2-7; N-terminus assumed
SMILES: CC[C@H](C)[C@H](NC(=O)[C@H](C)NC(=O)CNC(=O)[C@H](Cc1ccccc1)NC(=O)[C@H](CC(N)=O)NC(=O)[C@@H]1CCCN1C(=O)[C@H](CO)NC(=O)[C@H](CO)NC(=O)[C@H](Cc1c[nH]cn1)NC(=O)[C@H](CCCNC(=N)N)NC(=O)[C@H](CC(C)C)NC(=O)[C@H](Cc1ccccc1)NC(=O)[C@H](CCC(=O)O)NC(=O)[C@H](C)NC(=O)[C@H](CC(C)C)NC(=O)[C@H](CCCNC(=N)N)NC(=O)[C@H](CCC(N)=O)NC(=O)[C@@H](NC(=O)[C@H](C)NC(=O)[C@@H]1CSSC[C@H](NC(=O)[C@@H](N)CCCCNC(=O)CC[C@H](NC(=O)CCCCCCCCCCCCCCCCCCC(=O)O)C(=O)O)C(=O)N[C@@H](CC(N)=O)C(=O)N[C@@H]([C@@H](C)O)C(=O)N[C@@H](C)C(=O)N[C@@H]([C@@H](C)O)C(=O)N1)[C@@H](C)O)C(=O)N1CCC[C@H]1C(=O)N[C@@H](CO)C(=O)N[C@@H](CO)C(=O)N[C@H](C(=O)N[C@@H](CC(N)=O)C(=O)N[C@H](C(=O)NCC(=O)N[C@@H](CO)C(=O)N[C@@H](CCCNC(=N)N)C(=O)N[C@H](C(=O)N[C@@H](Cc1ccc(O)cc1)C(N)=O)[C@@H](C)O)C(C)C)[C@@H](C)O
notes: synthetic analogue of human amylin; also called compound 51
Regarding B1, the “Ratio rCT/rAmylin binding” value in assay [1] was determined as 119. Further, the “Ratio hCT/hAmylin binding” value in assay [2] was 37.5. Besides, the IC50 in assay [3] came out at 62 nM; in assay [4], 0.523 nM.

B2: N^ε1-[(4S)-4-carboxy-4-(19-carboxynonadecanoylamino)butanoyl]-[His14,Arg17,Pro21,Pro27,His35]-h-amylin (peptide)
peptide: K([γGlu-C20 diacid])CNTATCATQRLAHFLRHSSPNFGAIPSSTNVGSHTY-NH2
modifications: disulfide 2-7; N-terminus assumed
SMILES: CC[C@H](C)[C@H](NC(=O)[C@H](C)NC(=O)CNC(=O)[C@H](Cc1ccccc1)NC(=O)[C@H](CC(N)=O)NC(=O)[C@@H]1CCCN1C(=O)[C@H](CO)NC(=O)[C@H](CO)NC(=O)[C@H](Cc1c[nH]cn1)NC(=O)[C@H](CCCNC(=N)N)NC(=O)[C@H](CC(C)C)NC(=O)[C@H](Cc1ccccc1)NC(=O)[C@H](Cc1c[nH]cn1)NC(=O)[C@H](C)NC(=O)[C@H](CC(C)C)NC(=O)[C@H](CCCNC(=N)N)NC(=O)[C@H](CCC(N)=O)NC(=O)[C@@H](NC(=O)[C@H](C)NC(=O)[C@@H]1CSSC[C@H](NC(=O)[C@@H](N)CCCCNC(=O)CC[C@H](NC(=O)CCCCCCCCCCCCCCCCCCC(=O)O)C(=O)O)C(=O)N[C@@H](CC(N)=O)C(=O)N[C@@H]([C@@H](C)O)C(=O)N[C@@H](C)C(=O)N[C@@H]([C@@H](C)O)C(=O)N1)[C@@H](C)O)C(=O)N1CCC[C@H]1C(=O)N[C@@H](CO)C(=O)N[C@@H](CO)C(=O)N[C@H](C(=O)N[C@@H](CC(N)=O)C(=O)N[C@H](C(=O)NCC(=O)N[C@@H](CO)C(=O)N[C@@H](Cc1c[nH]cn1)C(=O)N[C@H](C(=O)N[C@@H](Cc1ccc(O)cc1)C(N)=O)[C@@H](C)O)C(C)C)[C@@H](C)O
notes: synthetic analogue of human amylin; also called compound 66
For B2, the “Ratio rCT/rAmylin binding” value in assay [1] worked out at 35.8. Also, the “Ratio hCT/hAmylin binding” value in assay [2] is 45.5. Further, the half-maximal inhibitory concentration (IC50) stood at 20.8 nM in assay [3] and 0.581 nM in assay [4].

B3: N^ε1-[(4S)-4-carboxy-4-(19-carboxynonadecanoylamino)butanoyl]-[His14,Arg17,Pro21,Pro27,Arg34]-h-amylin (peptide)
peptide: K([γGlu-C20 diacid])CNTATCATQRLAHFLRHSSPNFGAIPSSTNVGRNTY-NH2
modifications: disulfide 2-7; N-terminus assumed
SMILES: CC[C@H](C)[C@H](NC(=O)[C@H](C)NC(=O)CNC(=O)[C@H](Cc1ccccc1)NC(=O)[C@H](CC(N)=O)NC(=O)[C@@H]1CCCN1C(=O)[C@H](CO)NC(=O)[C@H](CO)NC(=O)[C@H](Cc1c[nH]cn1)NC(=O)[C@H](CCCNC(=N)N)NC(=O)[C@H](CC(C)C)NC(=O)[C@H](Cc1ccccc1)NC(=O)[C@H](Cc1c[nH]cn1)NC(=O)[C@H](C)NC(=O)[C@H](CC(C)C)NC(=O)[C@H](CCCNC(=N)N)NC(=O)[C@H](CCC(N)=O)NC(=O)[C@@H](NC(=O)[C@H](C)NC(=O)[C@@H]1CSSC[C@H](NC(=O)[C@@H](N)CCCCNC(=O)CC[C@H](NC(=O)CCCCCCCCCCCCCCCCCCC(=O)O)C(=O)O)C(=O)N[C@@H](CC(N)=O)C(=O)N[C@@H]([C@@H](C)O)C(=O)N[C@@H](C)C(=O)N[C@@H]([C@@H](C)O)C(=O)N1)[C@@H](C)O)C(=O)N1CCC[C@H]1C(=O)N[C@@H](CO)C(=O)N[C@@H](CO)C(=O)N[C@H](C(=O)N[C@@H](CC(N)=O)C(=O)N[C@H](C(=O)NCC(=O)N[C@@H](CCCNC(=N)N)C(=O)N[C@@H](CC(N)=O)C(=O)N[C@H](C(=O)N[C@@H](Cc1ccc(O)cc1)C(N)=O)[C@@H](C)O)C(C)C)[C@@H](C)O
notes: synthetic analogue of human amylin; also called compound 85
As for B3, the “Ratio rCT/rAmylin binding” value in assay [1] was 46.5. Further, the “Ratio hCT/hAmylin binding” value in assay [2] was determined as 91.8. Besides, the results for the half-maximal inhibitory concentration (IC50) in assay [3] and in assay [4] were 146 nM and 3.14 nM, respectively.

B4: N^ε1-[(4S)-4-carboxy-4-(19-carboxynonadecanoylamino)butanoyl]-[His14,Arg17,Pro21,Pro27,His34]-h-amylin (peptide)
peptide: K([γGlu-C20 diacid])CNTATCATQRLAHFLRHSSPNFGAIPSSTNVGHNTY-NH2
modifications: disulfide 2-7; N-terminus assumed
SMILES: CC[C@H](C)[C@H](NC(=O)[C@H](C)NC(=O)CNC(=O)[C@H](Cc1ccccc1)NC(=O)[C@H](CC(N)=O)NC(=O)[C@@H]1CCCN1C(=O)[C@H](CO)NC(=O)[C@H](CO)NC(=O)[C@H](Cc1c[nH]cn1)NC(=O)[C@H](CCCNC(=N)N)NC(=O)[C@H](CC(C)C)NC(=O)[C@H](Cc1ccccc1)NC(=O)[C@H](Cc1c[nH]cn1)NC(=O)[C@H](C)NC(=O)[C@H](CC(C)C)NC(=O)[C@H](CCCNC(=N)N)NC(=O)[C@H](CCC(N)=O)NC(=O)[C@@H](NC(=O)[C@H](C)NC(=O)[C@@H]1CSSC[C@H](NC(=O)[C@@H](N)CCCCNC(=O)CC[C@H](NC(=O)CCCCCCCCCCCCCCCCCCC(=O)O)C(=O)O)C(=O)N[C@@H](CC(N)=O)C(=O)N[C@@H]([C@@H](C)O)C(=O)N[C@@H](C)C(=O)N[C@@H]([C@@H](C)O)C(=O)N1)[C@@H](C)O)C(=O)N1CCC[C@H]1C(=O)N[C@@H](CO)C(=O)N[C@@H](CO)C(=O)N[C@H](C(=O)N[C@@H](CC(N)=O)C(=O)N[C@H](C(=O)NCC(=O)N[C@@H](Cc1c[nH]cn1)C(=O)N[C@@H](CC(N)=O)C(=O)N[C@H](C(=O)N[C@@H](Cc1ccc(O)cc1)C(N)=O)[C@@H](C)O)C(C)C)[C@@H](C)O
notes: synthetic analogue of human amylin; also called compound 81
On to B4, for which the “Ratio rCT/rAmylin binding” value in assay [1] is 42.9. Also, the “Ratio hCT/hAmylin binding” value in assay [2] stood at 87.2. Moreover, the IC50 worked out at 61.1 nM in assay [3] and 1.42 nM in assay [4].
